Measurements reported in PMC3790753.

Target: stratifin (14-3-3 σ) (UniProt P31947)
Test: anti-myc IP, anti-stratifin blot
Conditions: reference: wild-type Pkp-3-myc; sites S285

binding against the reference: lost
Substance: plakophilin-3 (from UniProt Q9Y446) Pkp-3-myc S285A
